Consider nine molecules from patent US20250304643A1 (BAINAN BIOTECH, published 2025).

*1 amine or outer side, *2 acyl side, *3 side chain or, on linkers, in order; H or OH if unused. Where no end group is shown, it is not given here. Side-chain parts run from the residue outwards. [ ]: non-standard residue; d: D form. The star is where a group is joined. C18 diacid = O=C(O)CCCCCCCCCCCCCCCCC(=O)*; C16 diacid = O=C(O)CCCCCCCCCCCCCCC(=O)*; γGlu = O=C(O)[C@H](CCC(=O)[*:2])N[*:1]; Palmitoyl = CCCCCCCCCCCCCCCC(=O)*; Decanoyl = CCCCCCCCCC(=O)*; AEEA = NCCOCCOCC(=O)O; Aib = CC(C)(N)C(=O)O

What all share (assay): cell-based or functional assay
Experiment [1] addresses macaque GLP-2R (macaque).
Experiment [2] has as its target T1, human GLP-2R (glucagon-like peptide-2 receptor) (human, UniProt O95838 1-553).
T1 sequence (looked up): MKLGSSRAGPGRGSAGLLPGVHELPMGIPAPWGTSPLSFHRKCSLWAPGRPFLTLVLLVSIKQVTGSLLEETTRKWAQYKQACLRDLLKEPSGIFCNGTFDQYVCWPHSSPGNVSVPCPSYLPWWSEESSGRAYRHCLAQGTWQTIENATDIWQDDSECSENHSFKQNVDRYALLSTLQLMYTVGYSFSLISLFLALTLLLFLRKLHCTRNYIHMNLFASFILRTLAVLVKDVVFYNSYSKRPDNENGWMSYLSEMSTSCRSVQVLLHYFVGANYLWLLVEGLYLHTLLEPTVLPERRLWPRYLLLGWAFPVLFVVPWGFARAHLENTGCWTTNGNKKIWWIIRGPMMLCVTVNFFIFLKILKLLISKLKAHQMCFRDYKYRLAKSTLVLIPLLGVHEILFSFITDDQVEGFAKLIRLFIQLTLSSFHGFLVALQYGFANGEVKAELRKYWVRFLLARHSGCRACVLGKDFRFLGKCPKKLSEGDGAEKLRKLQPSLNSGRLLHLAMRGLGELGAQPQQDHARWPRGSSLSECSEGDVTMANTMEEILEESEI

Experiment [3] has as its target human GLP-1R (GLP-1 receptor) (human, UniProt P43220 24-463).
Experiment [4] addresses T2, rat GIPR (rat, UniProt P43219 19-455).
T2 sequence (looked up): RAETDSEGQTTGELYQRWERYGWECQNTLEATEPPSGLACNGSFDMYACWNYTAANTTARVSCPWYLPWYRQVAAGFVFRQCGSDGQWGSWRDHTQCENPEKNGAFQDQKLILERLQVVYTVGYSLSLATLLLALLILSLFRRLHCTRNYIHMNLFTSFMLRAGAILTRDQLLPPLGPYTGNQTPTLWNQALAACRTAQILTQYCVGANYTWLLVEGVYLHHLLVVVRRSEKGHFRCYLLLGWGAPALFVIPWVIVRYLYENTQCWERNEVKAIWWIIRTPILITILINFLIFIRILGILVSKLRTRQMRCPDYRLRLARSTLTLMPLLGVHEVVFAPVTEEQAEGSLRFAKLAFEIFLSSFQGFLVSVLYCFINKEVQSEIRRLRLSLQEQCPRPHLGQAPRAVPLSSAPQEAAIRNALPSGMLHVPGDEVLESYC

For experiment [5], the target named is macaque GIPR (macaque).
In experiment [6] the target is T3, human GIPR (glucose-dependent insulinotropic polypeptide receptor) (human, UniProt P48546 22-466).
T3 sequence (looked up): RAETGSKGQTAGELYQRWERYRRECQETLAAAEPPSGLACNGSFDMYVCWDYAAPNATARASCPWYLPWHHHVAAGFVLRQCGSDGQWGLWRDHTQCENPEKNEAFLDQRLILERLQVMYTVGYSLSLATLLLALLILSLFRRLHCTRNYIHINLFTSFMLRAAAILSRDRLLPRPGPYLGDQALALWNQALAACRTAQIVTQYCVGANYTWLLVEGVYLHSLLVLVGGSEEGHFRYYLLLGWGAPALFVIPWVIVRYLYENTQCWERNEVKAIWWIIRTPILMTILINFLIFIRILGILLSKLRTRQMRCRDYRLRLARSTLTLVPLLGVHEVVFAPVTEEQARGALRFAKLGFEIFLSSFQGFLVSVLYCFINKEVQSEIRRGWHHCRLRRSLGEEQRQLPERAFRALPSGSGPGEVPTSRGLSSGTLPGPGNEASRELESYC

B1: Compound no. 5 (peptide)
peptide: Palmitoyl-H[Aib]DGTFISDYST[Aib]LDNLAARDFINWLIQTKITK-OH
SMILES: CCCCCCCCCCCCCCCC(=O)N[C@@H](Cc1c[nH]cn1)C(=O)NC(C)(C)C(=O)N[C@@H](CC(=O)O)C(=O)NCC(=O)N[C@H](C(=O)N[C@@H](Cc1ccccc1)C(=O)N[C@H](C(=O)N[C@@H](CO)C(=O)N[C@@H](CC(=O)O)C(=O)N[C@@H](Cc1ccc(O)cc1)C(=O)N[C@@H](CO)C(=O)N[C@H](C(=O)NC(C)(C)C(=O)N[C@@H](CC(C)C)C(=O)N[C@@H](CC(=O)O)C(=O)N[C@@H](CC(N)=O)C(=O)N[C@@H](CC(C)C)C(=O)N[C@@H](C)C(=O)N[C@@H](C)C(=O)N[C@@H](CCCNC(=N)N)C(=O)N[C@@H](CC(=O)O)C(=O)N[C@@H](Cc1ccccc1)C(=O)N[C@H](C(=O)N[C@@H](CC(N)=O)C(=O)N[C@@H](Cc1c[nH]c2ccccc12)C(=O)N[C@@H](CC(C)C)C(=O)N[C@H](C(=O)N[C@@H](CCC(N)=O)C(=O)N[C@H](C(=O)N[C@@H](CCCCN)C(=O)N[C@H](C(=O)N[C@H](C(=O)N[C@@H](CCCCN)C(=O)O)[C@@H](C)O)[C@@H](C)CC)[C@@H](C)O)[C@@H](C)CC)[C@@H](C)CC)[C@@H](C)O)[C@@H](C)CC)[C@@H](C)O
Take B1: in experiment [1], the “Efficacy (%)” value is 120%.

As to HADGTFISDYSTILDK([AEEA-AEEA-γGlu-C18 diacid])LAARDFINWLIQTKGKK [Compound no. 64], the “cAMP assay: Efficacy GLP-2R” value in experiment [2] was 75%. Besides, the “cAMP assay: Efficacy GLP-1R” value in experiment [3] worked out at 85%.

B2: Compound no. 25 (peptide)
peptide: H[Aib]DGK([γGlu-C16 diacid])FISDYST[Aib]LDNLAARDFINWLIQTKITK-OH
modifications: N-terminus assumed
SMILES: CC[C@H](C)[C@H](NC(=O)[C@H](Cc1ccccc1)NC(=O)[C@H](CCCCNC(=O)CC[C@H](NC(=O)CCCCCCCCCCCCCCC(=O)O)C(=O)O)NC(=O)CNC(=O)[C@H](CC(=O)O)NC(=O)C(C)(C)NC(=O)[C@@H](N)Cc1c[nH]cn1)C(=O)N[C@@H](CO)C(=O)N[C@@H](CC(=O)O)C(=O)N[C@@H](Cc1ccc(O)cc1)C(=O)N[C@@H](CO)C(=O)N[C@H](C(=O)NC(C)(C)C(=O)N[C@@H](CC(C)C)C(=O)N[C@@H](CC(=O)O)C(=O)N[C@@H](CC(N)=O)C(=O)N[C@@H](CC(C)C)C(=O)N[C@@H](C)C(=O)N[C@@H](C)C(=O)N[C@@H](CCCNC(=N)N)C(=O)N[C@@H](CC(=O)O)C(=O)N[C@@H](Cc1ccccc1)C(=O)N[C@H](C(=O)N[C@@H](CC(N)=O)C(=O)N[C@@H](Cc1c[nH]c2ccccc12)C(=O)N[C@@H](CC(C)C)C(=O)N[C@H](C(=O)N[C@@H](CCC(N)=O)C(=O)N[C@H](C(=O)N[C@@H](CCCCN)C(=O)N[C@H](C(=O)N[C@H](C(=O)N[C@@H](CCCCN)C(=O)O)[C@@H](C)O)[C@@H](C)CC)[C@@H](C)O)[C@@H](C)CC)[C@@H](C)CC)[C@@H](C)O
For B2, in experiment [4], the “Efficacy (%)” value turned out to be 71.7% and the pEC50 (commonly the EC50 on a negative log10 scale, so that one unit is a factor of ten) stood at 8.

Consider H[Aib]DGTFISDYK([γGlu-Decanoyl])T[Aib]LDNLAARDFINWLIQTKITGNDWKHNITQ-OH [Compound no. 54], for which, in experiment [5], the “Efficacy (%)” value stood at 71.8% and the pEC50 came to 7.7.

As for HXDGTFISDYSTILDNLAARDFINWLIQTKITK (Aib at 2; K(C10) at 33 (C-terminal residue); C-terminus -OH) [Compound no. 63], in experiment [6], the “cAMP assay: Efficacy GIPR” value was 99%. The “cAMP assay: Efficacy GLP-2R” value in experiment [2] was 105%. The “cAMP assay: Efficacy GLP-1R” value in experiment [3] turned out to be 84%.

HXDGTFISDYSTXLDNLAARDFINWLIQTKITK (Aib at 2 and 13; K(C10) at 33 (C-terminal residue); C-terminal amide (-NH2)) [Compound no. 65]: in experiment [6], the “cAMP assay: Efficacy GIPR” value is 107%. In addition, the “cAMP assay: Efficacy GLP-2R” value in experiment [2] amounted to 77%. Further, the “cAMP assay: Efficacy GLP-1R” value in experiment [3] was 76%.

Regarding HXDGTFISDYKTILDNLAARDFINWLIQTKITK (Aib at position 2; K(γGlu-C16) at position 11; C-terminal -OH) [Compound no. 11], in experiment [5], the “Efficacy (%)” value was determined as 92.5% and the pEC50 worked out at 9.

With HADGTFISDYST[Aib]LDK([AEEA-AEEA-γGlu-C18 diacid])LAARDFINWLIQTKGKK [Compound no. 62], the “cAMP assay: Efficacy GIPR” value in experiment [6] worked out at 86%. Also, the “cAMP assay: Efficacy GLP-2R” value in experiment [2] worked out at 83%. The “cAMP assay: Efficacy GLP-1R” value in experiment [3] amounted to 85%.

On to HADGTFISDYSTILDNLAARDFINWLIQTKGKK([AEEA-AEEA-γGlu-C18 diacid]) (also: K33: γGlu-C18-diacid linker 2xAEEA-γGlu) [Compound no. 60], for which the “cAMP assay: Efficacy GIPR” value in experiment [6] was 93%. In experiment [2], the “cAMP assay: Efficacy GLP-2R” value amounted to 90%. For the same molecule, the “cAMP assay: Efficacy GLP-1R” value in experiment [3] was 105%.
